Consider three substances from patent US20190240330A1.

Test [1] concerns the target human epidermal growth factor receptor 1 (EGFR1), on the surface of HSC-2 and FaDu tumor cells (human) (UniProt P00533). The test can be described thus: flow cytometry, AlexaFluor488-labeled compound 5 ug/ml, 3 h at +37 C, FaDu cells; cell surface bound plus internalized, normalized to degree of labeling.
For test [2] the target is unchanged. The test can be described thus: flow cytometry, AlexaFluor488-labeled compound 5 ug/ml, 3 h at +37 C, HSC-2 cells; cell surface bound plus internalized, normalized to degree of labeling.
For test [3] the target is unchanged. The test can be described thus: tritium-labeled compound 5 ug/ml, 3 h at +37 C, FaDu cells, scintillation counting of cell lysate; internalized plus cell surface bound; mean +/- S.D. of three.

For the substance “Control-F(ab')2 (F(ab')2 fragment of omalizumab)”, the Normalized mean fluorescence intensity in test [1] came to 443; in test [2] it was 823.

As to “Control-Fab (Fab fragment of omalizumab)”, the Normalized mean fluorescence intensity in test [1] turned out to be 970; in test [2], 1160.

As for “Control-mAb (omalizumab, anti-IgE) (antibody)”, the Normalized mean fluorescence intensity in test [2] was 700. For the same substance, the % internalized/100000 cells in test [3] was determined as 0.01%.
